B1: OVA-PEG: ovalbumin conjugated to ~10 kDa PEG via activated carbonate-amine conjugation (conjugate, UniProt P01012 2-386, looked up)
Ovalbumin: GSIGAASMEFCFDVFKELKVHHANENIFYCPIAIMSALAMVYLGAKDSTRTQINKVVRFDKLPGFGDSIEAQCGTSVNVHSSLRDILNQITKPNDVYSFSLASRLYAEERYPILPEYLQCVKELYRGGLEPINFQTAADQARELINSWVESQTNGIIRNVLQPSSVDSQTAMVLVNAIVFKGLWEKAFKDEDTQAMPFRVTEQESKPVQMMYQIGLFRVASMASEKMKILELPFASGTMSMLVLLPDEVSGLEQLESIINFEKLTEWTSSNVMEERKIKVYLPRMKMEEKYNLTSVLMAMGITDVFSSSANLSGISSAESLKISQAVHAAHAEINEAGREVVGSAEAGVDAASVSEEFRADHPFLFCIKHIATNAVLFFGRCVSP
modifications: 10 kDa PEG conjugate
B2: OVA-POEGMA: ovalbumin conjugated to ~10 kDa EG3 POEGMA via activated carbonate-amine conjugation (conjugate, UniProt P01012 2-386, looked up)
Ovalbumin: B1 Ovalbumin
modifications: 10 kDa EG3 POEGMA conjugate

Key:
C57BL6/J mice = conditions: mouse, in vivo
Procedure: (§1) Immunogenicity. Immunogenicity of POEGMA was tested and compared to that of PEG in three sets of immunogenicity experiments. […] In the second set of experiments, mice were injected with OVA (Invivogen), OVA-PEG10K, and OVA-POEGMA10K at 9.6 nmol kg^−1. In the final set, OVA, OVA-PEG10K, and OVA-POEGMA10K were emulsified in an equal volume of sterile and endotoxin-free adjuvant (Invivogen) and then administrated into 7-week-old C57BL/6J mice (n=10) at 9.6 nmol kg^−1. Complete Freund's adjuvant (CFA) was used for the first injection, while incomplete Freund's adjuvant (IFA) was the adjuvant of choice for the rest of the injections. In all experimental sets, an equal injection volume of PBS (or PBS emulsified in CFA or IFA) was used as a negative control. All drugs were administrated into mice every 17 days three times (Day 0, 17, and 34). […]
(§2) Analysis of anti-drug antibodies (ADA), ADAs were analyzed using a Luminex multiplex immunoassay (LMI) according to the manufacturer's instructions with minor modifications. […]
(§3) In a typical LMI assay, 50 μl of the diluted plasma samples (n=3) were transferred to a black, round-bottom 96-well-plate (Corning). […] Finally, magnetic beads were suspended in 100 μl of assay buffer, followed by measuring mean fluorescence signal intensity (MFI) using MAGPIX (Luminex) instrument. […]

C57BL/6J mice = conditions: mouse, in vivo, sc
Procedure: as §1, §2, §3

Row | Molecule | PEG-specific IgM titer, higher than with exendin-PEG (C57BL6/J mice) [fold] | anti-POEGMA response with Freund's adjuvant (C57BL/6J mice)
1 | B1 | ~60 | 
2 | B2 |  | only a weak IgM response disappearing after the first injection
